Legend:
[1] = target: alpha thrombin (Homo sapiens) (UniProt P00734+P00734); assay: MST; conditions: two HD1 aptamers flanking a poly(serinol phosphodiester) backbone of 30 amine-serinol units (X), grafted with 10 kDa PEG side chains; 20 mM HEPES pH 7.4, 150 mM NaCl, 2 mM CaCl2, 0.05% Tween; 10 nM thrombin
[2] = target: thrombin (in C57BL/6 mouse plasma) (Mus musculus) (UniProt P19221+P19221); assay: inhibition; conditions: two HD1 aptamers flanking a poly(serinol phosphodiester) backbone of 30 amine-serinol units (X), grafted with 10 kDa PEG side chains; in vivo i.v. 15 nmol in C57BL/6 mice; also 3-fold PT; neutralized by LNA antidote
[3] = target: thrombin (in pooled normal plasma) (Homo sapiens) (UniProt P00734+P00734); assay: inhibition; conditions: two HD1 aptamers flanking a poly(serinol phosphodiester) backbone of 30 amine-serinol units (X), grafted with 10 kDa PEG side chains; 5 uM in human plasma; almost three-fold longer clotting; reversed by LNA antidote
DNase I = DNase I (UniProt P00639); assay: cleavage_in_vitro; conditions: 10 mM Tris-HCl pH 7.5, 2.5 mM MgCl2, 0.5 mM CaCl2, 100 nM DNA, 0.6 unit/mL
Sequence of DNase I (P00639 23-282): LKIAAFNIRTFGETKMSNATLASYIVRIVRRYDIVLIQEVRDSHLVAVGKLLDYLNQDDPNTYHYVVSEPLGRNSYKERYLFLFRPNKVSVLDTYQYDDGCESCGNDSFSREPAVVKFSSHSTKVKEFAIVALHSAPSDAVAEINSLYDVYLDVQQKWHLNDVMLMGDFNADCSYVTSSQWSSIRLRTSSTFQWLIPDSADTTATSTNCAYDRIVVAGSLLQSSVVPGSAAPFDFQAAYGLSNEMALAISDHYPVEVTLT

## GGTTGGTGTGGTTGGTTTTTNNNNNNNNNNNNNNNNNNNNNNNNNNNNNNTTTTTGGTTGGTGTGGTTGG [PSP pacHD1]
[1]
  Kd: 6.9 nM
[2]
  activity (fold aPTT vs blank): 5
[3]
  activity (fold aPTT vs vehicle): 3

## NNNNNNNNNNNNNNNTTTTTTTTTTTTTTT / AAAAAAAAAAAAAAA [Doubler PSP pacDNA:dA15 duplex]
DNase I; symmetric doubler with two 15-unit poly(serinol phosphodiester) arms grafted with 10 kDa PEG
  activity: 38.1 min

## TTTTTTTTTTTTTTT (double strand) [dT15:dA15 duplex]
DNase I
  activity: 13.9 min

## TTTTTTTTTTTTTTTNNNNNNNNNNNNNNNNNNNNNNNNNNNNNNTTTTTTTTTTTTTTT / AAAAAAAAAAAAAAA [PSP pacDNA:dA15 duplex]
DNase I; poly(serinol phosphodiester) backbone of 30 units grafted with 10 kDa PEG
  activity: 32.2 min
